# Laboratory results taken from patent US20240252614A1 (Pfizer, published 2024).
# B1: hMPV-2 mAb (antibody, V domains shown)
# VH: QVQLQQSGAEVKKPGASVKVSCKASGYTFTSYGISWVRQAPGQGLEWMGWISGYNGNTNYAQTFQGTFTMTTDTSTSTAYMELRRLRSGDTAVYYCARDRYYASGSYNGMDVWGQGTTVTVSS
# VL: QSALTQPPSASGAPGQRVTVSCSGSSSNVGSSSVYWYQQLPGTAPKLLIYRNNQRPSGVPDRFSGSKSGTSASLAISGLRSEDEADYYCAAWDDSLSGWVFGGGTKLTVLG
# notes: human IgG1
# B2: PIV1-8 mAb (antibody, V domains shown)
# VH: QVQLVQSGAEVKKPGSSVKVSCEASGGTFSNYVISWVRQAPGQGLEWMGGIIPVFATAKYAQKFQGRVTIIADQSTNTAYLELSSLRSDDTAVYFCASVDSGGTWWDAFAIWGQGTMVTVSS
# VL: QAVVTQPRSVSGSPGQAVTISCTGTSSDVGGYNYVSWYQHHPGKAPKLIIYDVTKRPSGVPDRFSGSKSGNTASLTISGLQTEYEADYYCCSYAGSYTLVFGGGTKLTVLG
# notes: human IgG1; also called hPIV1-8 mAb; hPIV1-8
# Experiments:
# hMPV052 = target: T1, hMPV052 (hMPV A, UniProt Q6WB98 19-102); test: BLI, 53C stress
# T1 construct: L66P
# Procedure: (§1) The OCTET HTX (Sartorius, Gottingen, Germany) instrument was used to evaluate the expression and conformational integrity for each mutant. All measurements were conducted at 30° C. temperature in 96-well black plates (Corning, Corning, NY) with a final volume of 240 μL per well at a constant agitation rate of 1000 RPM.
# (§2) Conformation integrity of hMPV A F protein mutants were evaluated by thermal stress experiments. Crude cell culture supernatants were normalized based on the results of the titer quantitation and then incubated for 1 hour at room temperature and two higher temperatures. […] Anti-Human IgG Fc Capture (AHC) biosensors were first equilibrated in PB before being dipped into more PB to establish the initial baseline. […] The mAb-bound biosensors were then dipped into the thermal stressed cell culture supernatants for 5 minutes. The kinetics analysis was done by OCTET data analysis software (version 12.0, Sartorius) based on curve fitting of the entire associate step.
# hMPV058 = target: T2, hMPV058 (hMPV A, UniProt Q6WB98 19-102); test: BLI, 53C stress
# T2 construct: L187P
# Procedure: as §1, §2
# hMPV049 = target: T3, hMPV049 (hMPV A, UniProt Q6WB98 19-102); test: BLI, 53C stress
# T3 construct: E146C-T160C
# Procedure: as §1, §2
# hMPV047 = target: T4, hMPV047 (hMPV A, UniProt Q6WB98 19-102); test: BLI, 53C stress
# T4 construct: L141C-A159C
# Procedure: as §1, §2
# hMPV071 = target: T5, hMPV071 (hMPV A, UniProt Q6WB98 19-102); test: BLI, 53C stress
# T5 construct: T365I
# Procedure: as §1, §2
# hMPV068 = target: T6, hMPV068 (hMPV A, UniProt Q6WB98 19-102); test: BLI, 53C stress
# T6 construct: A159V
# Procedure: as §1, §2
# hMPV054 = target: T7, hMPV054 (hMPV A, UniProt Q6WB98 19-102); test: BLI, 53C stress
# T7 construct: S132P
# Procedure: as §1, §2
# hMPV063 = target: T8, hMPV063 (hMPV A, UniProt Q6WB98 19-102); test: BLI, 53C stress
# T8 construct: G239A
# Procedure: as §1, §2
# hMPV050 = target: T9, hMPV050 (hMPV A, UniProt Q6WB98 19-102); test: BLI, 53C stress
# T9 construct: V148C-L158C
# Procedure: as §1, §2
# hMPV061 = target: T10, hMPV061 (hMPV A, UniProt Q6WB98 19-102); test: BLI, 53C stress
# T10 construct: G106A
# Procedure: as §1, §2
# hMPV A F WT Control = hMPV A F WT Control (hMPV A, UniProt Q6WB98 19-102); test: BLI, 53C stress
# Procedure: as §1, §2
# hMPV055 = target: T11, hMPV055 (hMPV A, UniProt Q6WB98 19-102); test: BLI, 53C stress
# T11 construct: N145P
# Procedure: as §1, §2
# hMPV067 = target: T12, hMPV067 (hMPV A, UniProt Q6WB98 19-102); test: BLI, 53C stress
# T12 construct: S149T
# Procedure: as §1, §2
# hMPV060 = target: T13, hMPV060 (hMPV A, UniProt Q6WB98 19-102); test: BLI, 53C stress
# T13 construct: A459P
# Procedure: as §1, §2
# hMPV043 = target: T14, hMPV043 (hMPV A, UniProt Q6WB98 19-102); test: BLI, 53C stress
# T14 construct: G366C-D454C
# Procedure: as §1, §2
# hMPV066 = target: T15, hMPV066 (hMPV A, UniProt Q6WB98 19-102); test: BLI, 53C stress
# T15 construct: T49I
# Procedure: as §1, §2
# hMPV075 = target: T16, hMPV075 (hMPV A, UniProt Q6WB98 19-102); test: BLI, 53C stress
# T16 construct: L473F
# Procedure: as §1, §2
# hMPV044 = target: T17, hMPV044 (hMPV A, UniProt Q6WB98 19-102); test: BLI, 53C stress
# T17 construct: T411C-Q434C
# Procedure: as §1, §2
# hMPV046 = target: T18, hMPV046 (hMPV A, UniProt Q6WB98 19-102); test: BLI, 53C stress
# T18 construct: A140C-S149C
# Procedure: as §1, §2
# hMPV053 = target: T19, hMPV053 (hMPV A, UniProt Q6WB98 19-102); test: BLI, 53C stress
# T19 construct: L110P
# Procedure: as §1, §2
# hMPV059 = target: T20, hMPV059 (hMPV A, UniProt Q6WB98 19-102); test: BLI, 53C stress
# T20 construct: V449P
# Procedure: as §1, §2
# [1] = target: F protein of hMPV A virus (human metapneumovirus A); test: cell-based or functional assay
# [2] = target: F protein of hMPV B virus (human metapneumovirus B); test: cell-based or functional assay
# hMPV144 = target: T21, hMPV144 (hMPV B, UniProt Q6WB98 19-102); test: BLI, no stress
# T21 construct: T49I, L141C-A161C, S149T, A459P
# hMPV135 = target: T22, hMPV135 (hMPV B, UniProt Q6WB98 19-102); test: BLI, no stress
# T22 construct: T49I, S149T, A459P
# hMPV140 = target: T23, hMPV140 (hMPV B, UniProt Q6WB98 19-102); test: BLI, no stress
# T23 construct: T49I, L141C-A161C, T411C-Q434C, A459P
# hMPV142 = target: T24, hMPV142 (hMPV B, UniProt Q6WB98 19-102); test: BLI, no stress
# T24 construct: L141C-A161C, S149T, A459P
# hMPV118 = target: T25, hMPV118 (hMPV B, UniProt Q6WB98 19-102); test: BLI, no stress
# T25 construct: T49I, T150C-R156C
# hMPV130 = target: T26, hMPV130 (hMPV B, UniProt Q6WB98 19-102); test: BLI, no stress
# T26 construct: L141C-A161C, G239A, T411C-Q434C, A459P
# hMPV136 = target: T27, hMPV136 (hMPV B, UniProt Q6WB98 19-102); test: BLI, no stress
# T27 construct: A140C-S149C, A459P
# hMPV131 = target: T28, hMPV131 (hMPV B, UniProt Q6WB98 19-102); test: BLI, no stress
# T28 construct: T49I, L141C-A161C, G239A, T411C-Q434C, A459P
# PIV1069 = target: T29, PIV1069 (PIV1); test: BLI, 56C stress;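 further: binding of thermally stressed PIV1 F mutant supernatant to mAb on AHC biosensors for 5 min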
# T29 construct: F113G, F114S, A466L, S473L, G134A
# Procedure: as §1
# (§3) Conformation integrity of PIV1 F protein mutants were evaluated by a thermal stress experiment. Crude cell culture supernatants were normalized based on the results of the titer quantitation and then incubated for 1 hour at room temperature and two higher temperatures. For the initial testing of PIV1 mutants, the two temperatures were 50° C. and 53° C. […] Anti-Human IgG Fc Capture (AHC) biosensors were first equilibrated in PB for before being dipped into more PB to establish the initial baseline. […] The mAb-bound biosensors were then dipped into the thermal stresses cell culture supernatants for 5 minutes.
# [3] = target: T30, PIV1 F literature prefusion comparison (PIV1); test: BLI, 56C stress;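 further: binding of thermally stressed PIV1 F mutant supernatant to mAb on AHC biosensors for 5 min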
# T30 construct: F113G, F114S, A466I, S473I (Stewart-Jones et al. 2018)
# Procedure: as §1, §3
# PIV1070 = target: T31, PIV1070 (PIV1); test: BLI, 56C stress;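 further: binding of thermally stressed PIV1 F mutant supernatant to mAb on AHC biosensors for 5 min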
# T31 construct: F113G, F114S, A466I, S473I, G134A
# Procedure: as §1, §3
# F protein of hPIV1 virus = F protein of hPIV1 virus (human parainfluenza virus 1); test: cell-based or functional assay
binder,measurement,setting,value
B1,Response Shift,hMPV052,-0.044 nm
same,Response Shift,hMPV058,-0.052 nm
same,Response Shift,hMPV049,-0.011 nm
same,Response Shift,hMPV047,-0.079 nm
same,Response Shift,hMPV071,-0.046 nm
same,Response Shift,hMPV068,0.022 nm
same,Response Shift,hMPV054,-0.072 nm
same,Response Shift,hMPV063,0.001 nm
same,Response Shift,hMPV050,-0.032 nm
same,Response Shift,hMPV061,-0.073 nm
same,Response Shift,hMPV A F WT Control,-0.026 nm
same,Response Shift,hMPV055,-0.073 nm
same,Response Shift,hMPV067,0.184 nm
same,Response Shift,hMPV060,-0.045 nm
same,Response Shift,hMPV043,0.03 nm
same,Response Shift,hMPV066,0.265 nm
same,Response Shift,hMPV075,-0.082 nm
same,Response Shift,hMPV044,0.618 nm
same,Response Shift,hMPV046,0.196 nm
same,Response Shift,hMPV053,0.017 nm
same,Response Shift,hMPV059,-0.051 nm
same,"IC50, virus neutralization assay",[1],20 µg/mL
same,"IC50, virus neutralization assay",[2],23.2 µg/mL
same,Response Shift,hMPV144,0.712 nm
same,Response Shift,hMPV135,0.73 nm
same,Response Shift,hMPV140,0.731 nm
same,Response Shift,hMPV142,0.731 nm
same,Response Shift,hMPV118,0.844 nm
same,Response Shift,hMPV130,0.71 nm
same,Response Shift,hMPV136,0.591 nm
same,Response Shift,hMPV131,0.727 nm
B2,Response Shift,PIV1069,0.819 nm
same,Response Shift,[3],0.458 nm
same,Response Shift,PIV1070,0.859 nm
same,"IC50, virus neutralization assay",F protein of hPIV1 virus,0.005 µg/mL
